Test results taken from a protein production outcome set (Wang et al. 2014).

Assay: label from the status in PepcDB records

Sequence | protein production
MKIEKQVNDLRIIELEKELENNPFIPILYWELGLNYLISVGEEKAEEIWSLGLLQCFTSFDEGLLSLVGFIEQHIELNKNDKQTVLILWQQIIKIVPNYLAGHLNLLVVACELKVFSAEKLAYLGTVALINSIDSGCISQQEEELLLRATLSILEFPTALSLDFLRSSIPLLVNLPWCDAVMAFANSMVYDKQLFSYGVEIAEICLQYSPNNLFILNDLIRFYGLRKDQDALLRTARNLLNIFRQQDFEPDFGFYLSSRLLSAFMTGNDWEQVQSIASIFKDYFILLQNEKSVVLNNFLRDRFWGLGFSLLYLFDEPESNRRCLNFNASIFQQNLTENQNKTICQEENLPKKKQVSLKRIGYIAHTLRQHSVGWLCRWLFKYHDREKFEIFVYLIGQPEDELTENWIYPNVSKYYHFGRDKNEIIKQIKQDQIQILVDLDVLTHNITAQVLAHKPAPVQVSWLGSDASGLPAIDYFIVDPYVVPDDAEGYYREKLWRLPQTYLAVDGFEMGTPTLSREQLGIKPNTVIYLSVQNKIKSNPNILKLQLQILQSVPDSVFLIKGGGDNELIRAMVEQLAKEMGLDLHRIRFLPKDGDEMTHRANLSIADVVLDTYPYNGATTTLETLWMEVPLVTRVGKQFASRNSYTFLTQLNIREGLAWNDQEYVYWGTRFGLEKSLREKVKNELNLGKYKSKLWRAKDFTQELELAYEGMWNGDLD | failed
MSARSLYQDTAVAALRDDLALALCAAAHHGLGEGVCNHFSVALPGQAGAFLLNPRGLMWSEVRAEDIVLVDAAGNKLAGRHEVEPTAMFIHAAIHQVAGKACVLHTHMPYATALTLTEARMLDTTLSQNAMRFHGRVAADRRYNGLALDAAEGERIARAMDGADIAFLGNHGVVVCGERIDYAFDDLYYLERACCAQVLAESSGRPLVPLDAALAASVAGQARSERLQSTLFFEALRRALGLEHHHHHH | failed
MIIRYATPDDIEDMVSIFIDAYNFPGPRESVKSSFEISLEVQPDGCLLAFLKDEPVGMGCIFFYNKQAWIGLMGVKKAYQRRGIGTEVFRRLLEIGRRKVDTIRLDASSQGYGLYKKFKFVDEYRTVRYELMERPIKRVEGVVEVNKIPNWVKEIDKKAFGDDRIRVLEAYMRRGARLLCAENEGFGLVYRGKIGPLVADSPRVAEKILLKAFQLGAREIIIPEVNKDALELIKIFKPSQVTSCMRMRLGSKIEEKVDIYYGILAYAKG | not failed
VGPHAALMDATYRHQRRIYDITRRHFLLGRDELIAALAPPPGARVLEIACGTGRNLDLIDRRWPGLRLYGLDISEEMLRTARARLGTRARLAQGDATDFDARALFGAARFERIVISYALSMIPDWRPALAHAASLLSKEGELHVVDFGDQAGLPRWFRTGLRGWIGRFHVEPRDDLGAALAEVAAGVG | failed
MAGTDFEPDVKVRSREYRIGCVGAGMIMAECHLAAYAQAGFPVVAIASRTKASAEKVARRWDIPIVHDTPEQLIEDSKVEIVDLAFPPDQQPALIRHALKQPHIKAILAQKPLALTVEEAIKLRDEAAKSGKILSVNQNMRYDQSMRVLKQIIDSGALGDIVFAQIDMHAIPHWQAFLADYDRLTLANMSVHHLDVLRFLFGDPHEITTLTRKDPRTTFDHSDGITVSTLRFPSGVLAVSLEDVWSGPREQGYRDDQHINWRVDGTKGVAKGTIGWPTGVASTLTYASTQTTGGEWVTPSWDTMWFPHAFIGVMEQLQYAVKTGTPPALSVADNVKTMALVEAGYRSMAEGRTVRLSEISTN | failed
MYTKTKASISALLILITITLSSCSGTKNKDIYSRKNSNAAHTVATIGYDNKTYVSLKEAFKSVGGKCTLNGEGAIASKGKDIIKVSASSSTAYLNSSKIAMSANPKLKNNDIYVPMDFLNQVMDARITYSNGKLNIQTELPLKYTKAFNIKYLKGGIKKITDGNNKTVILVPKNKTVPAEYKNETVITYPVNNVLVSSATQGSLLRPLDEIKSIKTVTLKENEWEIDEIKSLLNDNKITYIGDTTSPDFEKISSSKPDVAILYGGSYGLNNMMKKFDELHINYTSDNEYLEEDPLGRLEWIKFLSAFYDKEDKAENYFNQQVSKVMATENKVSSLKKPKVAFGMVDNGKVYIPAKNSYAAKMVDMAGGDYIFKDLNNKSGYITLEDFYSKSKDADVLIYSSSKEYTPSLKSMLSAAPILKTIKPVKNKKVWCFGKDYYQAIDKTDEIIEDLASIFHPESFKGYKIKHYSHY | failed
MEILQFIGYGNMAQAILEGAHEILSKRFILEITGRNPEKIAPFLQEKNIQAQIVPYKDAIDIHQKFVFLLFKPYNLKDFNYQGQAKSVLSALAGVGFKALSDAIDSLHYLKCMPNIASKFALSSTAVCEKSPMPLISQKALSVIESFGNCVRVGHEELVDASVATNGSALAFLSLVANSLKDAGIREGLNARGSLELVKMSFKGFAKLLEKERPEMIIEQICTPKGATIEGLSVLEKKGVRGAFIEACHKSVKKMRL | failed
MTITTERGSQQYAYTDLPRLMGLMTGDEKHGPAATSTLDALWVLYDRVLRVAPERVDEPGRDRFLLSKGHGPMAYYAVLAAKGFLPVDWLPDFGSYDSPLGHHPDRVLVPGAEIGSGSLGHGLPIAVGTALGLRAQGLGEPRVWVLTGDAELDEGSNHEAIAYAGAAGLERLHTIVIDNSSATHALTGGIAARFEAAGWATTTVDGHDHEALHAAFTAPHEGRPLAVVARVRPKDA | failed
MDTFNYQNFYNQEYYLNMVPGIPYDREAHGGHWLRFFNTVADRLINYVSPTSVLDVGCAKGFLLEAFYNRGILVHGFDYSEYAISCVREDLKPFAFVASAANSNAFLEKQDSYDLITCIEVVEHMPRDEAWLAIKNMCQSAKSIFFSSTSDDFAEPTHLTVLPRIYWLETFLSFGFVPDYKFDIHDLIPHGILLRKIDDNLTAFKMLIEVNETNLEVIKQQKIDIEKLNSEKVNLENKLQQTQTELERSHSQLQQTQTELERSHSQLQQTQTELERSHSQLQQTQTELERSHSQLQQTQTELERSHSQLHQTQTELERSQSQLQQTQTELERSQSQLQQIQMALTLPQSQLYQMQTELEHWKNLVDWMEGSRFWKLRALCLSLKKKIINFPIIKLDFGSLPVFRKNNYPIFVKRTGKLIKNQIMSFRTQNDFADEILAGVLQSFAESPEYSQWIKDYEAKNDELKEQRINAASFPYQPVLSIILPVYKLPLTVLQETINSVIQQTYSNWELCIAFADIDNYQTIDYLKTLSLQEKRIKLKVMAENKGISGNSNVSLNMASGEFVALLDHDDLLAPFAFYEVISELNKQPDLDFIYSDKDCISANSMVRSRLLLKPEWSPEILYSANYLTHLCIARRTLLEKIGGFRPETDGAQDWDLFLRITENTSRIARINSVLYHWRIIQGSTSLGIDSKPYALEGQLRSIQDHLTRTKLPATVSPHPESGFRLEWQASSAEVSIYIDGDVSWDSLSACIHAVSEFADPKLHKATIVLAEHTYTSKATERENLITAVNLPIDWLPIKEGDSKLATLANTIKQDKTDVVVFVSGLVKKFTEGWIQELSGWVLNHPDIGFVSSLVLTDNNLVVEAGLVVDQYNNGSPLMRGNFLYSWDIFGGALWYRNCSASSPWSIAFSYKNYLEGGGLPSNSPSLSHSMIKLCQAIRVNNKRGLVNPHARAFLQDLPKNDIPEFDDSLGNDPYFHPAFSSVVPLKLRVKNGKKN | failed
MNAARYAEHLAIFVEVARGGSFSAVARRHGATPSTITRKIDMLEEFVGTNLLVRSTRALLLTEAGETLFARGVSVLEALTDIHNEVIALSDSMYGTLRISCLPTFGKLHVLPWLADLQQRHPSMRIDLDLTERLTNPSVERLDAAIRIGKLKDSSLFAKQIGTQRWVICASPDYLRQRGHPSDLEDLRRLRLIDKLHDPHSMCWRRLVEKGHIDQIEAAFRCDDFEAMRQAALCGLGAAFLPDWVIAQDLAAGALIRLFDDPEGREDGIHLVRALPKMSAKLEVFHQALSNHLGQVRIGGCLPASR | failed
MALTATVDVELKIRHSVPQRREPTKWRRIMYAITGITGKVGGAMARALLAAGQPVRAIVRDATKGRQWAALGCDVAIATMEDAEALTQAFKGATAVFILPPPVFDPEPFYPEAQAVIDSVATALRAAKPARVVCLSTVGADAVQDNLLSQHTKMETALSALPLALTLLRPAWFLDNVAWDVSSARGAGLIHSFLAPTGRALPMVAAEDVGRVAATLIQQDWSGTRIVELEGPERVSPDDLAAAFTTVLGKPVRAVPVPRETWEALFRSQGMRNPQPRMRMLDGFNEGWIAFADEARTIKGTISATTVVQALVAGEGA | failed
MSADIVFDRGSPSDIDEIKTFTSNTWKVGYYTDLYSKLADTGTMDDYVDKVIERWVNDGSVYVLRVSGRPVATIHMEKLPDGSVMLGGLRVHPEYRGSRLGMSIMQETIQFLRGKTERLRSAVYSWNEPSLRLVHRLGFHQVEEYPIYTFQGGSTAVPALKPVNERYAGRWRCFFIDWKYMCSDDPDIIHEEYSNNLIVDGSTFVYFDIYEGGIDLFVNDSDDASSFIEKYRSMNGRITFYVRKALANGLPYVPASSLTVWEYRY | not failed
